Reference: IntAct's records for PubMed 21866104

B1: Golgi to ER traffic protein 1 (Saccharomyces cerevisiae), P53192 (parent)
chain: MHWAAAVAIFFIVVTKFLQYTNKYHEKWISKFAPGNELSKKYLAKVKERHELKEFNNSISAQDNYAKWTKNNRKLDSLDKEINNLKDEIQSENKAFQAHLHKLRLLALTVPFFVFKIMYGKTPVYKLSSSTSTLFPTFVSGVWSQGWLYVLLHPLRTISQKWHIMEGKFGASKFDDMALQSVSLGIWVWALMNVINGVEFIVKQLFLTPKMEAPASVETQEEKALDAVDDAIILD
partner: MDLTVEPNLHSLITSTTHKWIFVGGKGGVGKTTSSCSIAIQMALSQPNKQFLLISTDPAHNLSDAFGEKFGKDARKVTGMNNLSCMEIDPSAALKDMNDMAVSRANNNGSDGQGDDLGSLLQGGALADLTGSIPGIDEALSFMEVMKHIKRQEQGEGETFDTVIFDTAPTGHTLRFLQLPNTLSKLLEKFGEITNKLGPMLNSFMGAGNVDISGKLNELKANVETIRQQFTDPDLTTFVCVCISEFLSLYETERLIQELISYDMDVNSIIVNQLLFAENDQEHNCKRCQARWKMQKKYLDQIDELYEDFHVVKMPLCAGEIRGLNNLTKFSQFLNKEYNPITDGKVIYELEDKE
B2: Golgi to ER traffic protein 2 (Saccharomyces cerevisiae), P40056 (parent)
chain: MSELTEAEKRRLLRERRQKKFSNGGASSRLNKITGQASSHLNAESPLDAPSAAKTTPPASVHSATPDIKEDSNVAPQLDLLKQLAAMQGQGTGKSTPQDSSTPDLLSLLSSMNTGMPSAEGTPSFGQAAPAAPINQAALDYHDYLLNRLKAWTILVKWVFFLLPYLYLITRPNSSVWPAYAFTQSAWFAPLRNPSNFTRIFATFEFLSISIYYQLLKNVEHKSKIKNLQDTNKLVKLVSLVPEGVIPVANLKGKLITLLQYWDLLSMLITDISFVLIVLGLLTYL
partner: B1 partner

Variants of: B1
Settings: with get3_yeast GET3, Q12154

Row | Variant | effect of a mutation on the interaction
1 | MHWAAAVAIFFIVVTKFLQYTNKYHEKWISKFAPGNELSKKYLAKVKERHELKEFNNSISAQDNYAKWTKNNEKLDSLDKEINNLKDEIQSENKAFQAHLHKLRLLALTVPFFVFKIMYGKTPVYKLSSSTSTLFPTFVSGVWSQGWLYVLLHPLRTISQKWHIMEGKFGASKFDDMALQSVSLGIWVWALMNVINGVEFIVKQLFLTPKMEAPASVETQEEKALDAVDDAIILD [R73E] | disrupting interaction

Variants of: B2
Settings: with get3_yeast GET3, Q12154

Row | Variant | effect of a mutation on the interaction
2 | MSELTEAEKRRLLREREQKKFSNGGASSRLNKITGQASSHLNAESPLDAPSAAKTTPPASVHSATPDIKEDSNVAPQLDLLKQLAAMQGQGTGKSTPQDSSTPDLLSLLSSMNTGMPSAEGTPSFGQAAPAAPINQAALDYHDYLLNRLKAWTILVKWVFFLLPYLYLITRPNSSVWPAYAFTQSAWFAPLRNPSNFTRIFATFEFLSISIYYQLLKNVEHKSKIKNLQDTNKLVKLVSLVPEGVIPVANLKGKLITLLQYWDLLSMLITDISFVLIVLGLLTYL [R17E] | disrupting interaction
